Experimental data: publication PMC4238996 (PLoS Neglected Tropical Diseases, 2014)

T1: GST-tagged MupFHA (Mup018c, residues 1-362), wild type (M. ulcerans Agy99 (plasmid pMUM001), UniProt Q6MZ86 1-362)
T1 construct: also called MupFHA^wt; GST-MupFHA
T1 sequence: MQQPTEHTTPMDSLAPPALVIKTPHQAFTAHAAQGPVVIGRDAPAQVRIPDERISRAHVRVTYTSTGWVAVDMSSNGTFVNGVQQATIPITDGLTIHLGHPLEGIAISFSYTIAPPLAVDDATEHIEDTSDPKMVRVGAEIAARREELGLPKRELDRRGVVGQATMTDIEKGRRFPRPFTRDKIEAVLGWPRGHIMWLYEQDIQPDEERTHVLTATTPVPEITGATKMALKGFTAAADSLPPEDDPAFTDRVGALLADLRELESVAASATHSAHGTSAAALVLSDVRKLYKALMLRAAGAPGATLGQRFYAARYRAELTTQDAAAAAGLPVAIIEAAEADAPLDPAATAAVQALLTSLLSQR


Biological target: T1, GST-tagged MupFHA (Mup018c, residues …)
Assay: ELISA
Conditions: both partners purified

Binder	binding result
MBP-tagged MupDivIVA S43/45/49A triple mutant (natural protein) MSHSELLDPALPKSPFGKQGYRYDDVDVFLRLIADELQGSDLAEADIHAITFRCAAPLTRGYDTESVDRFLDRIAETIARGHGDEGQ	binds
MBP-tagged MupDivIVA-P (Mup012c residues 1-87, phosphorylated by co-expression with PknQ) (natural protein, M. ulcerans Agy99 (plasmid pMUM001), UniProt Q6MZ92 1-87, looked up, also called phosphorylated MupDivIVA) MSHSELLDPALPKSPFGKQGYRYDDVDVFLRLIADELQGSDLSESDIHSITFRCAAPLTRGYDTESVDRFLDRIAETIARGHGDEGQ	binds
